# Source: article PMC9253517 (The Journal of Experimental Medicine, 2022)
# Changes are numbered by the printed parent chain.
# B1: JN223 (antibody, V domains shown)
# VH: EVQLLESGGGLVQPGGSLRLSCAASRFTFSNFAMSWVRQAPGKGLEWVSAISGSGGSTYYADSVKGRFIISRDNSKNTLFLQMNSLRAEDTAVYFCAKDLPYDNTGARFDYWGQGTLVTVSS
# VL: SYELTQPPSVSVSPGQTARITCSGDALPKKYAYWYQQKSGQAPVLVIYEDSKRPSGIPERFSGSSSGTMATLTISGAQVEDEADYYCYSTDSTGNHRGVFGGGTKLTVL
# B2: JN018 (antibody, V domains shown)
# VH: QVQLQESGPGLVKPSETLSLTCTVSGGSISGSYWSWMRQPAGKPLEWIGRIYVSGSYNRNPSLSSRVTVSEDTAKNQISLRLTSVTAADTAVYYCAREIMGWYFDLWGRGTLVTVSS
# VL: EIVMTQSPGTLSVSPGERATLSCRASQSVRSSLAWYQQKPGQAPRLLIYDASTRATGIPARFSGSGSGTEFTLTISSLQSEDFAIYLCQQYYNWPSYTFTQGTKLEIK
# B3: JN222 (antibody, V domains shown)
# VH: EVQLVESGGGLVQPGGSLRLSCAASGFTFSRYWMSWVRQAPGKGLEWVANIKGDGKYYVDSLKGRFTISGDNAENSLYLQMNSLRAEDTAMYYCARYLAETGALDIWGQGTMVTVSS
# VL: QSALTQPRAVSGSPGQSVTISCTGTSSDVGGYNYVSWYQQHPGKAPKLMIYDVSKRPSGVPDRFSGSKSGNTASLTISGLQAEDEADYYCYSFSGRYTSYVFGIGTKVTVL
# B4: JN219 (antibody, V domains shown)
# VH: QLQLQESGPGLVKPSETLSLTCTVSGGSISSSSYYWGSYYWGWIRQPPGKGLEWIASIYYSGTTYYNPSLKSRVTISVDTSKNQFSLKLSSVTAADTAVYYCASRYCSGGSCSLDYWGQGTLVTVSS
# VL: QSALTQPRSLSGSPGQSVTISCTGTSSDVGSYNYVSWYQQHPGKAPKLMIYDVSKRPSGVPDRFSGSKSGNTASLTISGLQAEDEADYYCCSYAGSYTLWVFGGGTKLTVL
# B5: JN015 (antibody, V domains shown)
# VH: QLQLQESGPGLVKPSETLSLTCTVSGGSISGSSYYWGWIRQPPGKGLEWFGSIYYSGTTYYNPSLKSRVAISVDTSKKQFSLKLSSVTAADTAVYYCAARYFDWSVEYWGQGTLVTVSS
# VL: B4 VL with L10V, S31G, H41Q, Y89H, L99Y, V101L
# B6: JN026 (antibody, V domains shown)
# VH: QVQLQESGPGLVKPSETLSLTCTVSGGSISSYYWSWIRQPPGKGLEWIGYIYYSGSTNYNPSLKSRVTISVDTSKNQFSLKLSSVTAADTAVYYCARHSLTYYYDRSDYKGAFDIWGQGTMVTVSS
# VL: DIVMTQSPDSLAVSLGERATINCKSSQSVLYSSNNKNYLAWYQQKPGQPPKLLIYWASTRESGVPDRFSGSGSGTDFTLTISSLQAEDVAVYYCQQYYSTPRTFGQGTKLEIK
# B7: JN022 (antibody, V domains shown)
# VH: B6 VH with G27D, S30R, S31N, I48M, R106S
# VL: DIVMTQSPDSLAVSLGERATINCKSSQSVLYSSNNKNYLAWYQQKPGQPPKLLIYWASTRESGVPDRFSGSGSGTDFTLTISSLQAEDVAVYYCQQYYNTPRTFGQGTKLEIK
# B8: JN232 (antibody, V domains shown)
# VH: EVQLVQSGAEVKKPGESLNISCKGSGYSFTNYWIGWVRQMPGKGLEWMGIIYPGDSDTRYSPSFQGQVTISADKSISTVFLQWSSLKASDTAMYYCVRHDVLAVLMGGVTFDIWGQGTMVTVSS
# VL: EIVLTQSPGTLSLSPGERATLSCRASQSISSSYLAWYQQKSGQAPRLLIYGASSRATGIPDRFSGSGSGTDFTLTISRLEPEDFAVYYCQQYGGSPMYTFGQGTKLEIK
# B9: JN225 (antibody, V domains shown)
# VH: EVQLVESGGGLVQPGGSLRLSCGASGFTLGSFWMHWVRQAPGKGLEWVGDINGDGSAKYYADSVRGRFTISRDNAENSLFLQMNSLRVEDTALYYCARGAAWLDYWGQGTLVTVSS
# VL: QSALTQPASVSGSPGQSITISCTGTSSDVGGYNYVSWYQQHPGKAPKLIIYDVTNRPSGVSNRFSGSKSGNTASLTISGLQAEDEADYFCDSYRSSSPPSYVFGTGTKVTVL
# B10: JN104 (antibody, V domains shown)
# VH: QVQLQESGPGLVKPSGTLSLTCAVSGGSISSNKWWSWVRQPPGKGLEWIGEIYHSGSTNYNPSLKSRVTISVDKSKNQFSLKLSSVTAADTAVYYCAILRYGSGSSLPPDNWGQGTLVTVSS
# VL: EIVMTQSPATLSVSPGERATLSCRASQIISNNLAWHQQKPGQAPRLLIYGASTRATGIPARFSGSGSGTEFTLTISSLQSEDFAVYYCQQYNNWPPLLTFGGGTKVEIK
# B11: JN030 (antibody, V domains shown)
# VH: EVQLVESGGGLVKPGGSLRLSCAASGFTFSNYNMNWVRQAPGKGLEWVSSISTSGSFIYYADSVKGRFTISRDNAKNSLYLQMNSLRAEDTAVYYCARDTTPYSSGWYLWYFDLWGRGTLVTVSS
# VL: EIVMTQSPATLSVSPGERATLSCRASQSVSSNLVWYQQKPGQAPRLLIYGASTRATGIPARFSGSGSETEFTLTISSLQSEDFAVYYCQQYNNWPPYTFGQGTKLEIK
# B12: JN236 (antibody, V domains shown)
# VH: QVQLQESGPRLVKPSETLSLTCTVSGGSINDYYWSWIRQPPGKGLEYLGYIYYTGTTNYNPSLQSRLTMSVDTSKNQFSLKVNYVSAADTAVYYCARHSTGGSYPLDSWGRGILVTVSS
# VL: DIVMTQSPLTLPVTPGEPASISCRSSQSLLHSNGHNYVDWYLQKPGQSPQLLIHLGSNRASGVPDRFSGSGSGTDFTLKISRVEAEDVGVYFCMQALQSRTFGQGTKVEIK
# B13: JN028 (antibody, V domains shown)
# VH: EVQLVESGGGLVQPGGSLRLSCAASGFTFSSYSMNWVRQAPGKGLEWVSYISSSSSTIYYADSVKGRFTISRDNAKNSLYLQMNSLRDEDTAVYYCAPLRVLGGMDVWGQGTTVTVSS
# VL: SYELTQPPSVSVSPGQTARIICSGDALPKQYAYWYQQKPGQAPVLVIYKDSERPSGIPERFSGSSSGTTVTLTISGVQAEDEADYYCQSADSSGWVFGGGTKLTVL
# B14: JN218 (antibody, V domains shown)
# VH: EVQLVESGGGLVKPGGSLRLSCAASGFTFSSYTMNWVRQAPGKGLEWVSSISTGSSNIYYTDSVKGRFTISRDNARNSLSLQMNSLRAEDTAVYYCAREGRFIGTGYWSDFSYALDVWGQGTTVTVSS
# VL: EIVLTQSPGTLSLSPGERATLSCRASQSVSSSSLAWYQQTPGQAPRLLIYGASSRATGIPDRFSGSGSGTDFTLTISRLEPEDFAVYYCQQYGSSVGAFGQGTKLEIK
# B15: JN226 (antibody, V domains shown)
# VH: QVQLVQSGAEVKKPGSSVKVSCKASGGTFSSYAISWVRQAPGQGLEWMGGIIPIFGTANYAQKFQGRVTITADKSTSTAYMELSSLRSEDTAVYYCAMLGAGSPLRGIFGVVMTDGDGMDVWGQGTTVTVSS
# VL: QSVLTQPPSVSAAPGQKVTISCSGSSSNIGNNYVSWYQQLPGTAPKLLIYDNNKRPSGIPDRFSGSKSGTSATLGITGLQTGDEADYYCGTWDSSLSAGRVFGGGTKLTVL
# B16: JN010 (antibody, V domains shown)
# VH: EVQLVESGGDLIQPGGSLKLSCAASGVTVSSNYMTWVRQAPGKGLEWVSLIYSGGSTFYADSVKGRFTISRDNSKNTLYLLMNSLRVEDTAVYYCARDLRYYGMDVWGQGTTVTVSS
# VL: QTVVTQEPSFSVFPGGTVTLTCGLSSGSVSTNNYPTWYQQTPGQPPRTLIYSTDTRSSGVPDRFFGSILGNKAALTITGTQADDESHYYCVLLVGSGANAKWVFGGGTKLTVL
# B17: JN003 (antibody, V domains shown)
# VH: EVQLVESGGGLVQPGGSLRLSCAASGFTFNSYWMTWIRQAPGKGLEWVANIAPDGSDTYYVDSVRGRFIISRDNAKNSLYLHMNSLRPEDTAVYYCANTPAAVGEYWGQGTLVTVSS
# VL: B16 VL with T2A, F10L, F13S, L20V, I50M, D54N, S58P, P61L, F65S, T80A
# B18: JN012 (antibody, V domains shown)
# VH: QLQLQESGPGLVKPSETLSLTCTVSGGSISSGSYYWVWIRQPPGKGLEWIGSVYYSGTTYYNPSLKSRVTISIDTSKNQFSLRLSSVTAADTAVYYCATNNYSFLTGYYVLDYWGQGTLVTVSS
# VL: SYELTQPPSVSVSLGQMARITCSGEALPKTYAYWYQQKPGQFPVLVIYKDSERPSGIPERFSGSRSGTIVTLTISGVQAEDEADYYCLSTDISGTWVFGGGTKLTVL
# B19: JN105 (antibody, V domains shown)
# VH: QVQLVQSGAEVKKPGASVKVSCKASGYTFTSYGISWVRQAPGQGLEWMGWISAYNGNTNYAQKLQGRVTMTTDTSTSTAYMELRSLRSDDTAVYYCARDLQRAGPWADYDFWSGYYPPSNMDVWGQGTTVTVSS
# VL: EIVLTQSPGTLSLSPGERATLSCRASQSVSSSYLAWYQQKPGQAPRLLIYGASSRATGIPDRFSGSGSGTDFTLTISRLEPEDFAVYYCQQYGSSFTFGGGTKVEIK
# B20: JN033 (antibody, V domains shown)
# VH: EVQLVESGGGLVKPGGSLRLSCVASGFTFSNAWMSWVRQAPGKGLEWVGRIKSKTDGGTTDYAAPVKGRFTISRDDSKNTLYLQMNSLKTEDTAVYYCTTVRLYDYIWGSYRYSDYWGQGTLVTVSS
# VL: DIQLTQSPFSLSASVGDRVTITCRASQGISSYLAWYQQKPGKAPKLLIYAASTLQSGVPSRFSGSGSGTEFTLTISSLQPEDFATYYCQQLNSYPPNTFGPGTKVDIK
# B21: JN005 (antibody, V domains shown)
# VH: QVQLVESGGGLVEPGGSLRLSCAASGFTFSDYFMSWIRQAPGRGLEWVSFITTSGSTIYYADSVKGRFTISRDNAKNSLYLQMNSLRAEDTAVYYCARRSGGYYDILTGPYGLDVWGQGTTVTVSS
# VL: not shown
# B22: JN013 (antibody, V domains shown)
# VH: QLQLQESGPGLVKPSETLSLTCTVSGGSISSSSYYWGWIRQPPGKGLEWIGSIYYSGSTYYNPSLKSRVTISVDTSKKQFSLKLSSVTAADTAVYYCARTYYDYIWGSLLGDFWGQGTLVTVSS
# VL: QSALTQPRSVSGSPGQSVTISCTGTSSDVGGYNYVSWYQQHPGKAPKLMIYDVSKRPSGVPDRFSGSKSGNTASLTISGLQAEDEADYYCCSYAGSYWVFGGGTKLTVL
# B23: JN017 (antibody, V domains shown)
# VH: EVQLVESGGGLVQPGGSLRLSCAASGFTFTNHWMTWVRQAPGRGLEWVANIEGDGSDKYYVDSVKGRFTISRDNAKYSLYLHMNSLRGEDTAVYYCARHSGTYHGLDYWGQGTLVTVSS
# VL: B22 VL with Q40E, G66S, C91Y, S92A, Y93F, S96T, Y97T, V99M
# B24: JN008 (antibody, V domains shown)
# VH: EVQLVESGGDLIQPGGSLRLSCAASGFTVSSNYMNWVRQAPGKGLEWVSIIYSGGSTFYADSVKGRFTISRDNSKNTLYLQMNSLRVEDTATYFCARSYGDYYFDSWGQGTLVTVSS
# VL: EIVLTQSPATLSLSPGERATLSCRASQSVSSYLAWYQQKPGQAPRLLIYDASNRATGIPARFSGSGSGTDFTLTISSLEPEDFAVYYCQQRSNWPPSFTFGPGTKVDIK
# Target: SARS-CoV-2 Wuhan-Hu-1 NTD (SARS-CoV-2, UniProt P0DTC2 14-307)
# Test: cell-based or functional assay
row,Binder,"neutralisation IC50, WT (293TAce2) [µg/mL]"
1,B1,> 1
2,B2,> 1
3,B3,> 1
4,B4,> 1
5,B5,> 1
6,B6,> 1
7,B7,> 1
8,B8,> 1
9,B9,> 1
10,B10,> 1
11,B11,0.348
12,B12,> 1
13,B13,> 1
14,B14,> 1
15,B15,> 1
16,B16,> 1
17,B17,> 1
18,B18,> 1
19,B19,> 1
20,B20,> 1
21,B21,> 1
22,B22,> 1
23,B23,> 1
24,B24,> 1
